Reference: paper PMC12400196, “Triosephosphate isomerase from Fasciola hepatica: high-resolution crystal structure as a drug target” (Acta Crystallographica Section F: Structural Biology …, 2025)

Molecular target: the molecule itself
Assay: SEC; HiLoad 16/600 Superdex 200 pg, 25 mM Tris, 300 mM NaCl pH 7.0, 277 K; preparative step after IMAC

B1: Triosephosphate isomerase from Fasciola hepatica (enzyme)
chain: MASNRKFFVGGNWKMNGSKESNQKLLKTLSDAKPDANTEILVAVPFVYLKDVREHLDKRFHVAAQNCYKVASGAFTGEISPAMIRDCGCEWVILGHSERRHIFGESDELIGEKVNHALTCGLKVVPCIGEKLDEREAGKTEQVCFRQLDAIKKGIPKAEDWSRVVIAYEPVWAIGTGKTASPEQAQEVHHAVRQWLEKNVSQAVASSLRITYGGSVTAANCKELAKKPDVDGFLVGGASLKPEFVDICNANRG
notes: triosephosphate isomerase (EC 5.3.1.1), Fasciola hepatica; gene in plasmid pET-46 Ek/LIC; The plasmid was provided by D. Timson (construct of Zinsser et al., 2013); also called FhTPI; F. hepatica TPI; source: E. coli Rosetta (DE3), purified (IMAC, SEC)
Question: B1 was tested. Which “stoichiometry N” value did it give?
Answer: 2
